Reference: publication PMC8921277

Target: RSV F DS-Cav1 (human respiratory syncytial virus) (UniProt P03420)
Assay: BLI; […] (AHC) biosensors, […] (300-0.41 nM); Octet RED96e; […]

Sequence of MPE8 Fab (VH): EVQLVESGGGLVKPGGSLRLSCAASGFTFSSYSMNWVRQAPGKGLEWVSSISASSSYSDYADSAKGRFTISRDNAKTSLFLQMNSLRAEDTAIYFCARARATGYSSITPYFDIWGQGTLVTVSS
Sequence of MPE8 Fab (VL): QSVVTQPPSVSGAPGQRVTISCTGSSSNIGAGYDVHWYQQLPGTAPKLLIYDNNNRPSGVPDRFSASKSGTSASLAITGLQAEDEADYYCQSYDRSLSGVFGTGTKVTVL
Sequence of UniProt P03420 (P03420 26-513): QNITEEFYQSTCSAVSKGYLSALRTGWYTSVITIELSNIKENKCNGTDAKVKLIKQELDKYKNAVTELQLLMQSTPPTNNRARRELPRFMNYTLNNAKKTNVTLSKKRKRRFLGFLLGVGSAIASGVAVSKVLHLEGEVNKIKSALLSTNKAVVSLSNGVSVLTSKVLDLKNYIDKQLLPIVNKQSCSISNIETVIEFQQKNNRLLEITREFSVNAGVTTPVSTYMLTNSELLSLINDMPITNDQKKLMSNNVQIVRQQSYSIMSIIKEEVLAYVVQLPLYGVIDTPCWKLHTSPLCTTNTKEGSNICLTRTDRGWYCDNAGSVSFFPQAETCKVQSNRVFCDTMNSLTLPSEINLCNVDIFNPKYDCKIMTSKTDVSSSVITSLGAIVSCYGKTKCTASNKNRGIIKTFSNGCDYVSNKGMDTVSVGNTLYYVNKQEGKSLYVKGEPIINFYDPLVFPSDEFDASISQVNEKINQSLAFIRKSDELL

MPE8 Fab
Kd: < 1 pM
koff: < 1e-07 s⁻¹
kon: 360000 M⁻¹ s⁻¹
